{"source": "patent US20260167699A1", "about": "(Chugai, published 2026)", "binders": {"B1": {"name": "GpH7-A5/GpH7-B3 variant Q295_06M/GpL16-k0 (antibody, human IgG1, kappa)", "heavy 1": "not shown", "heavy 2": "not shown", "light": "DIVMTQSPLSLPVTPGEPASISCQASESLVHSNRNTYLHWYLQKPGQSPQLLIYKVSNRFSGVPDRFSGSGSGTDFTLKISRVEAEDVGVYYCSQNTHVPPTFGQGTKVEIERTVAAPSVFIFPPSDEQLKSGTASVVCLLNNFYPREAKVQWKVDNALQSGNSQESVTEQDSKDSTYSLSSTLTLSKADYEKHKVYACEVTHQGLSSPVTKSFNRGEC", "notes": "copies: 1 + 1 + 2"}, "B2": {"name": "GpH7-A5/GpH7-B3 variant S239_03V/GpL16-k0 (antibody, human IgG1, kappa)", "heavy 1": "not shown", "heavy 2": "not shown", "light": "DIVMTQSPLSLPVTPGEPASISCQASESLVHSNRNTYLHWYLQKPGQSPQLLIYKVSNRFSGVPDRFSGSGSGTDFTLKISRVEAEDVGVYYCSQNTHVPPTFGQGTKVEIERTVAAPSVFIFPPSDEQLKSGTASVVCLLNNFYPREAKVQWKVDNALQSGNSQESVTEQDSKDSTYSLSSTLTLSKADYEKHKVYACEVTHQGLSSPVTKSFNRGEC", "notes": "copies: 1 + 1 + 2"}, "B3": {"name": "GpH7-A5/GpH7-B3 variant Q295_12R/GpL16-k0 (antibody, human IgG1, kappa)", "heavy 1": "not shown", "heavy 2": "not shown", "light": "DIVMTQSPLSLPVTPGEPASISCQASESLVHSNRNTYLHWYLQKPGQSPQLLIYKVSNRFSGVPDRFSGSGSGTDFTLKISRVEAEDVGVYYCSQNTHVPPTFGQGTKVEIERTVAAPSVFIFPPSDEQLKSGTASVVCLLNNFYPREAKVQWKVDNALQSGNSQESVTEQDSKDSTYSLSSTLTLSKADYEKHKVYACEVTHQGLSSPVTKSFNRGEC", "notes": "copies: 1 + 1 + 2"}, "B4": {"name": "GpH7-A5/GpH7-B3 variant Q295_16H/GpL16-k0 (antibody, human IgG1, kappa)", "heavy 1": "not shown", "heavy 2": "not shown", "light": "DIVMTQSPLSLPVTPGEPASISCQASESLVHSNRNTYLHWYLQKPGQSPQLLIYKVSNRFSGVPDRFSGSGSGTDFTLKISRVEAEDVGVYYCSQNTHVPPTFGQGTKVEIERTVAAPSVFIFPPSDEQLKSGTASVVCLLNNFYPREAKVQWKVDNALQSGNSQESVTEQDSKDSTYSLSSTLTLSKADYEKHKVYACEVTHQGLSSPVTKSFNRGEC", "notes": "copies: 1 + 1 + 2"}, "B5": {"name": "GpH7-A5/GpH7-B3 variant Q295_05P/GpL16-k0 (antibody, human IgG1, kappa)", "heavy 1": "not shown", "heavy 2": "not shown", "light": "DIVMTQSPLSLPVTPGEPASISCQASESLVHSNRNTYLHWYLQKPGQSPQLLIYKVSNRFSGVPDRFSGSGSGTDFTLKISRVEAEDVGVYYCSQNTHVPPTFGQGTKVEIERTVAAPSVFIFPPSDEQLKSGTASVVCLLNNFYPREAKVQWKVDNALQSGNSQESVTEQDSKDSTYSLSSTLTLSKADYEKHKVYACEVTHQGLSSPVTKSFNRGEC", "notes": "copies: 1 + 1 + 2"}, "B6": {"name": "GpH7-A5/GpH7-B3 variant S239_02A/GpL16-k0 (antibody, human IgG1, kappa)", "heavy 1": "not shown", "heavy 2": "not shown", "light": "DIVMTQSPLSLPVTPGEPASISCQASESLVHSNRNTYLHWYLQKPGQSPQLLIYKVSNRFSGVPDRFSGSGSGTDFTLKISRVEAEDVGVYYCSQNTHVPPTFGQGTKVEIERTVAAPSVFIFPPSDEQLKSGTASVVCLLNNFYPREAKVQWKVDNALQSGNSQESVTEQDSKDSTYSLSSTLTLSKADYEKHKVYACEVTHQGLSSPVTKSFNRGEC", "notes": "copies: 1 + 1 + 2"}, "B7": {"name": "GpH7-A5/GpH7-B3 variant S239_10E/GpL16-k0 (antibody, human IgG1, kappa)", "heavy 1": "not shown", "heavy 2": "not shown", "light": "DIVMTQSPLSLPVTPGEPASISCQASESLVHSNRNTYLHWYLQKPGQSPQLLIYKVSNRFSGVPDRFSGSGSGTDFTLKISRVEAEDVGVYYCSQNTHVPPTFGQGTKVEIERTVAAPSVFIFPPSDEQLKSGTASVVCLLNNFYPREAKVQWKVDNALQSGNSQESVTEQDSKDSTYSLSSTLTLSKADYEKHKVYACEVTHQGLSSPVTKSFNRGEC", "notes": "copies: 1 + 1 + 2"}, "B8": {"name": "GpH7-A5/GpH7-B3 variant S239_09D/GpL16-k0 (antibody, human IgG1, kappa)", "heavy 1": "not shown", "heavy 2": "not shown", "light": "DIVMTQSPLSLPVTPGEPASISCQASESLVHSNRNTYLHWYLQKPGQSPQLLIYKVSNRFSGVPDRFSGSGSGTDFTLKISRVEAEDVGVYYCSQNTHVPPTFGQGTKVEIERTVAAPSVFIFPPSDEQLKSGTASVVCLLNNFYPREAKVQWKVDNALQSGNSQESVTEQDSKDSTYSLSSTLTLSKADYEKHKVYACEVTHQGLSSPVTKSFNRGEC", "notes": "copies: 1 + 1 + 2"}, "B9": {"name": "GpH7-A5/GpH7-B3 variant Q295_07I/GpL16-k0 (antibody, human IgG1, kappa)", "heavy 1": "not shown", "heavy 2": "not shown", "light": "DIVMTQSPLSLPVTPGEPASISCQASESLVHSNRNTYLHWYLQKPGQSPQLLIYKVSNRFSGVPDRFSGSGSGTDFTLKISRVEAEDVGVYYCSQNTHVPPTFGQGTKVEIERTVAAPSVFIFPPSDEQLKSGTASVVCLLNNFYPREAKVQWKVDNALQSGNSQESVTEQDSKDSTYSLSSTLTLSKADYEKHKVYACEVTHQGLSSPVTKSFNRGEC", "notes": "copies: 1 + 1 + 2"}, "B10": {"name": "GpH7-A5/GpH7-B3 variant S239_01G/GpL16-k0 (antibody, human IgG1, kappa)", "heavy 1": "not shown", "heavy 2": "not shown", "light": "DIVMTQSPLSLPVTPGEPASISCQASESLVHSNRNTYLHWYLQKPGQSPQLLIYKVSNRFSGVPDRFSGSGSGTDFTLKISRVEAEDVGVYYCSQNTHVPPTFGQGTKVEIERTVAAPSVFIFPPSDEQLKSGTASVVCLLNNFYPREAKVQWKVDNALQSGNSQESVTEQDSKDSTYSLSSTLTLSKADYEKHKVYACEVTHQGLSSPVTKSFNRGEC", "notes": "copies: 1 + 1 + 2"}, "B11": {"name": "GpH7-A5/GpH7-B3 variant S239_07I/GpL16-k0 (antibody, human IgG1, kappa)", "heavy 1": "not shown", "heavy 2": "not shown", "light": "DIVMTQSPLSLPVTPGEPASISCQASESLVHSNRNTYLHWYLQKPGQSPQLLIYKVSNRFSGVPDRFSGSGSGTDFTLKISRVEAEDVGVYYCSQNTHVPPTFGQGTKVEIERTVAAPSVFIFPPSDEQLKSGTASVVCLLNNFYPREAKVQWKVDNALQSGNSQESVTEQDSKDSTYSLSSTLTLSKADYEKHKVYACEVTHQGLSSPVTKSFNRGEC", "notes": "copies: 1 + 1 + 2"}, "B12": {"name": "GpH7-A5/GpH7-B3 variant Q295_13S/GpL16-k0 (antibody, human IgG1, kappa)", "heavy 1": "not shown", "heavy 2": "not shown", "light": "DIVMTQSPLSLPVTPGEPASISCQASESLVHSNRNTYLHWYLQKPGQSPQLLIYKVSNRFSGVPDRFSGSGSGTDFTLKISRVEAEDVGVYYCSQNTHVPPTFGQGTKVEIERTVAAPSVFIFPPSDEQLKSGTASVVCLLNNFYPREAKVQWKVDNALQSGNSQESVTEQDSKDSTYSLSSTLTLSKADYEKHKVYACEVTHQGLSSPVTKSFNRGEC", "notes": "copies: 1 + 1 + 2"}}}
{"target": "T1, FcγRIIIa (human, UniProt P08637 17-208)", "T1 construct": "extracellular domain; also called 3a; FcγRIIIa extracellular domain", "T1 sequence (P08637 other isoform, or with tags, fused parts or gaps)": "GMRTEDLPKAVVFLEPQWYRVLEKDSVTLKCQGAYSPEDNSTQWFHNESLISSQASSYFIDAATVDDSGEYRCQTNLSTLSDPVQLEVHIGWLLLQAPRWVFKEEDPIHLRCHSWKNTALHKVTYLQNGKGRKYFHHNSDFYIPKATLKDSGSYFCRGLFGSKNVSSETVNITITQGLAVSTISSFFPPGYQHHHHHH", "assay": "SPR (Biacore);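 also: antibody variants captured on an SPR sensor chip, with FcγRIIIa passed over as analyte in HBS-EP+ buffer at 25 °C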", "description": "The antibody of interest was analyzed for its interaction with FcγR using a BiaCore™ T100, BiaCore™ A100, or BiaCore™ 4000 surface plasmon resonance system (GE Healthcare Japan Corp.). The running buffer used was HBS-EP+ (GE Healthcare Japan Corp.). The assay temperature was set to 25° C. The sensor chips used were: a chip prepared by immobilizing antigenic peptides onto Series S Sensor Chip CM5 (GE Healthcare Japan Corp.) by the amine coupling method; a chip prepared by immobilizing antigenic peptides biotinylated in advance onto Series S Sensor Chip SA (certified) (GE Healthcare Japan Corp.) through their interaction; a chip prepared by immobilizing protein L (ACTIGEN, BioVision, Inc.) onto Series S Sensor Chip CM5 (GE Healthcare Japan Corp.); and a chip prepared by immobilizing protein A/G (Thermo Fisher Scientific K.K.) onto Series S Sensor Chip CM5 (GE Healthcare Japan Corp.). The antibody of interest was captured onto any of these chips and allowed to interact with FcγR diluted with a running buffer. The antibody captured on the chip was washed off through the reaction of 10 mM glycine-HCl (pH 1.5) to regenerate the chip, which was repetitively used."}
{"binder": "B1", "He/Con 3a": "100 % of GpH7-A5/GpH7-B3/GpL16-k0"}
{"binder": "B2", "He/Con 3a": "72.4 % of GpH7-A5/GpH7-B3/GpL16-k0"}
{"binder": "B3", "He/Con 3a": "73.2 % of GpH7-A5/GpH7-B3/GpL16-k0"}
{"binder": "B4", "He/Con 3a": "80.2 % of GpH7-A5/GpH7-B3/GpL16-k0"}
{"binder": "B5", "He/Con 3a": "74.4 % of GpH7-A5/GpH7-B3/GpL16-k0"}
{"binder": "B6", "He/Con 3a": "70.9 % of GpH7-A5/GpH7-B3/GpL16-k0"}
{"binder": "B7", "He/Con 3a": "171 % of GpH7-A5/GpH7-B3/GpL16-k0"}
{"binder": "B8", "He/Con 3a": "156 % of GpH7-A5/GpH7-B3/GpL16-k0"}
{"binder": "B9", "He/Con 3a": "101 % of GpH7-A5/GpH7-B3/GpL16-k0"}
{"binder": "B10", "He/Con 3a": "72 % of GpH7-A5/GpH7-B3/GpL16-k0"}
{"binder": "B11", "He/Con 3a": "75 % of GpH7-A5/GpH7-B3/GpL16-k0"}
{"binder": "B12", "He/Con 3a": "90.4 % of GpH7-A5/GpH7-B3/GpL16-k0"}
